The source of these data is PMC6949303 (Nature Communications, 2020).

As usually defined, the stoichiometry N is a count of units in the complex or per binding partner. What is called Kd is a measure of binding affinity in units of concentration. A word on the koff: it is a measure of how fast the partners let go of each other. A low value points to slow dissociation. For orientation: kon means the rate constant with which the complex forms. A high value points to fast association.

B1: wild-type IgE-Fc3-4 (co-expressed with the ligelizumab scFv for crystallisation) (domain or fragment, human)
chain: CADSNPRGVSAYLSRPSPFDLFIRKSPTITCLVVDLAPSKGTVNLTWSRASGKPVNHSTRKEEKQRNGTLTVTSTLPVGTRDWIEGETYQCRVTHPHLPRALMRSTTKTSGPRAAPEVYAFATPEWPGSRDKRTLACLIQNFMPEDISVQWLHNEVQLPDARHSTTQPRKTKGSGFFVFSRLEVTRAEWEQKDEFICRAVHEAASPSQTVQRAVSVNP
notes: human IgE heavy chain constant region, Cε3 and Cε4 domains, wild type (C328); also called C328 IgE-Fc3-4 fragment; wt C328 IgE-Fc3-4; source: HEK 293-6E, co-transfected with ligelizumab scFv, complex purified from supernatant (Ni-NTA, Superdex 200)

Data set [1] deals with the molecule itself. Nature of the data set: crystal structure; scFv:IgE-Fc3-4 complex, hanging drop, 0.2 M Na thiocyanate pH 6.9, 20% PEG3350, 10 mM spermidine, 14 °C; 3.65 Å.
The target in data set [2] is B1. The description is as above. Particulars: both partners purified.
Data set [3] has as its target T1, Ligelizumab IgG.
T1 construct: constant region of the IgG heavy chain; constant region of the light chain; also called QGE031; source: produced and provided by Novartis Pharma AG
Nature of the data set: SPR; 100 RU ligelizumab or omalizumab IgG immobilised by amine coupling on CM5 (ligelizumab pH 5.0, omalizumab pH 4.5); 0.3-5 nM C328 or C335 IgE-Fc3-4 injected 120 s, dissociation 180 s; HBS-EP+, 10 ul/min, Biacore X100; 1:1 langmuir fit. Particulars: both partners purified.

Data set [4] addresses T2, Omalizumab IgG.
T2 construct: also called Xolair; source: produced and provided by Novartis Pharma AG
Described as above. Particulars: both partners purified.

Data set [5] deals with T3, wild-type C328 IgE-Fc3-4 (human, UniProt P01854 209-426).
T3 construct: human IgE heavy chain constant region, Cε3 and Cε4 domains, variant named C328; also called wt C328 IgE-Fc3-4
Kind of data set: SPR; 1000 RU FcεRIα immobilised, 20 nM IgE-Fc3-4 captured; 3.13–100 nM ligelizumab or omalizumab injected 120 s, dissociation 180 s. Particulars: both partners purified. (In general: In SPR one partner is held on a chip, and binding of the other changes the refractive index at the surface.)

Data set [6] addresses T4, wild-type C328 IgE-Fc3-4 (Homo sapiens, UniProt P01854).
T4 construct: human IgE heavy chain constant region, Fc fragment of the Cε3 and Cε4 domains, wild-type variant named C328; PDB 6UQR holds wt C328 IgE-Fc3-4 made in HEK 293-6E for the crystal; also called wt C328 IgE-Fc3-4
Kind of data set: SPR; 100 RU ligelizumab or omalizumab IgG immobilised by amine coupling on CM5 (ligelizumab pH 5.0, omalizumab pH 4.5); 0.3-5 nM C328 or C335 IgE-Fc3-4 injected 120 s, dissociation 180 s; HBS-EP+, 10 ul/min, Biacore X100; 1:1 langmuir fit. Particulars: both partners purified.

Data set [7] concerns the target T5, wild-type C328 IgE-Fc3-4 (human, UniProt P01854).
T5 construct: human IgE heavy chain constant region, Cε3 and Cε4 domains, variant named C328; also called wt C328 IgE-Fc3-4
Kind of data set: SPR; Biacore X100, CM5 chip, HBS-EP+; 100 RU ligelizumab or omalizumab IgG immobilised; 0.3–5 nM C328 or C335 IgE-Fc3-4 injected 120 s, dissociation 180 s. Particulars: both partners purified.

Turning to B1, the “stoichiometry N” value in data set [1] came to 2.

B2: ligelizumab single chain fragment variable (scFv) (scFv)
scFv: QVQLVQSGAEVMKPGSSVKVSCKASGYTFSWYWLEWVRQAPGHGLEWMGEIDPGTFTTNYNEKFKARVTFTADTSTSTAYMELSSLRSEDTAVYYCARFSHFSGSNYDYFDYWGQGTLVTVSSGTGGSGGGGSGGGGSGGGASEIVMTQSPATLSVSPGERATLSCRASQSIGTNIHWYQQKPGQAPRLLIYYASESISGIPARFSGSGSGTEFTLTISSLQSEDFAVYYCQQSWSWPTTFGGGTKVEIKENLYFQ
notes: ligelizumab VH domain; GTG(GSGGG)3AS linker; ligelizumab VL domain; also called ligelizumab scFv; ligelizumab single chain Fv; source: HEK 293-6E, co-transfected with IgE-Fc3-4, complex purified from supernatant (Ni-NTA, Superdex 200); not shown: His8, C-terminal, cleaved
For B2, the binding result in data set [2] is reported as “binds”.

B3: mutated C335 IgE-Fc3-4 (domain or fragment)
chain: AADSNPRCVSAYLSRPSPFDLFIRKSPTITCLVVDLAPSKGTVNLTWSRASGKPVNHSTRKEEKQRNGTLTVTSTLPVGTRDWIEGETYQCRVTHPHLPRALMRSTTKTSGPRAAPEVYAFATPEWPGSRDKRTLACLIQNFMPEDISVQWLHNEVQLPDARHSTTQPRKTKGSGFFVFSRLEVTRAEWEQKDEFICRAVHEAASPSQTVQRAVSVNPGK
modifications: Disulfide-linked homodimer via Cys335 (entity position 11), closed Cε3 conformation; N-glycosylated at Asn394. The change is not given; it is taken from 5HYS entity 3 (C328A/G335C). …
For B3, in data set [3], the affinity, expressed as Kd, was 0.64 nM; the koff was 0.0065 s⁻¹; the kon worked out at 1.1e+07 M⁻¹ s⁻¹.

B4: mutated C335 IgE-Fc3-4 (domain or fragment)
chain: AADSNPRCVSAYLSRPSPFDLFIRKSPTITCLVVDLAPSKGTVNLTWSRASGKPVNHSTRKEEKQRNGTLTVTSTLPVGTRDWIEGETYQCRVTHPHLPRALMRSTTKTSGPRAAPEVYAFATPEWPGSRDKRTLACLIQNFMPEDISVQWLHNEVQLPDARHSTTQPRKTKGSGFFVFSRLEVTRAEWEQKDEFICRAVHEAASPSQTVQRAVSVNPGK
Turning to B4, in data set [4], the Kd came to 0.608 nM, the koff turned out to be 0.0049 s⁻¹ and the kon amounted to 7.7e+06 M⁻¹ s⁻¹.

B5: Recombinant extracellular part of human FcεRIα (receptor, UniProt P12319 26-205, looked up)
chain: VPQKPKVSLNPPWNRIFKGENVTLTCNGNNFFEVSSTKWFHNGSLSEETNSSLNIVNAKFEDSGEYKCQHQQVNESEPVYLEVFSDWLLLQASAEVVMEGQPLFLRCHGWRNWDVYKVIYYKDGEALKYWYENHNISITNATVEDSGTYYCTGKVWQLDYESEPLNITVIKAPREKYWLQ
notes: also called recombinant human FcεRIα
B5: the binding result in data set [5] was “binds”.

B6: Ligelizumab IgG (antibody, V domains shown)
VH: QVQLVQSGAEVMKPGSSVKVSCKASGYTFSWYWLEWVRQAPGHGLEWMGEIDPGTFTTNYNEKFKARVTFTADTSTSTAYMELSSLRSEDTAVYYCARFSHFSGSNYDYFDYWGQGTLVTVSS
VL: EIVMTQSPATLSVSPGERATLSCRASQSIGTNIHWYQQKPGQAPRLLIYYASESISGIPARFSGSGSGTEFTLTISSLQSEDFAVYYCQQSWSWPTTFGGGTKVEIK
notes: constant region of the IgG heavy chain; constant region of the light chain; also called QGE031; source: produced and provided by Novartis Pharma AG
In data set [6], B6 yielded a Kd of 0.011 nM, a koff of 0.00014 s⁻¹ and a kon of 1.3e+07 M⁻¹ s⁻¹.

B7: Ligelizumab IgG (antibody, V domains shown)
VH: QVQLVQSGAEVMKPGSSVKVSCKASGYTFSWYWLEWVRQAPGHGLEWMGEIDPGTFTTNYNEKFKARVTFTADTSTSTAYMELSSLRSEDTAVYYCARFSHFSGSNYDYFDYWGQGTLVTVSS
VL: EIVMTQSPATLSVSPGERATLSCRASQSIGTNIHWYQQKPGQAPRLLIYYASESISGIPARFSGSGSGTEFTLTISSLQSEDFAVYYCQQSWSWPTTFGGGTKVEIK
notes: heavy chain constant region of the IgG; light chain constant region; also called QGE031; source: produced and provided by Novartis Pharma AG
In the case of B7, the “fold higher affinity than C335 IgE-Fc3-4” value in data set [7] was around 60 fold.
